One substance from patent US20120021923 can be followed below.

With prostate-specific antigen (PSA), in the series on Ac-KGISSQY-AFC, the “Km (PSA-A buffer)” value is reported as “the Km value is estimated to be 1.73 mM”, the “Km (PSA-B buffer)” value is “the Km value is estimated to be 0.47 mM”, the “Vmax (PSA-A buffer)” value is “the Vmax is estimated to be 3.7 RLU/sec” and the “Vmax (PSA-B buffer)” value is “the Vmax is estimated to be 2.33 RLU/sec”. For the same substance, the “turnover rate by PSA” value in the series with Ac-KGISSQY-AFC is “the substrate of KGISSQY has a much higher turnover rate by PSA as compared to SKLQ”. The “turnover rate by PSA” value in the series with SKLQ-aluc is “SKLQ on the other had appears to have a very slow turnover compared to KGISSQY and to be highly specific to PSA”.
